For six molecules, binding result and Kd results are on record in article PMC8894342, “Humanization of a strategic CD3 epitope enables evaluation of clinical T-cell engagers in a fully immunocompetent in vivo model” (Scientific Reports, 2022).

As a reminder, the Kd is the constant that tells how readily two partners part at equilibrium.

What all share (assay): SPR; Fc-tagged CD3E/D variants captured on a C1 chip by amine-coupled anti-human Fc or anti-murine Fc pAb; concentration series of Fab; HBS pH 7.4, 0.05% Tween-20, 1 g/L BSA, 37 °C; 1:1 Langmuir model with mass transport
Holding throughout (settings): both partners purified
A general note: Surface plasmon resonance follows binding to a sensor surface in real time, without labels.

Assay [1] addresses T1, Fc-tagged murine CD3E/D heterodimer (Mus musculus, UniProt P22646;P04235).
T1 construct: CD3 epsilon, mouse; CD3 delta, mouse; also called mCD3E/D; source: Expi293, transiently co-expressed, purified (MabSelect Sure LX, Superdex 200)

For assay [2], the target named is T2, chimeric human/murine CD3E - murine CD3D Fc-tagged heterodimer (Mus musculus CD3E/D with human CD3E …, UniProt P07766;P22646;P04235, chimera).
T2 construct: CD3 epsilon, mouse, with a 5-residue N-terminal stretch replaced by an 11-residue stretch of human CD3E; CD3 delta, mouse; also called Chimeric human/murine CD3E/D; h/mCD3E-mCD3D; source: Expi293, transiently co-expressed, purified (MabSelect Sure LX, Superdex 200)
T2 sequence (P22646 22-189, stated change not applied, chain 1 of 2): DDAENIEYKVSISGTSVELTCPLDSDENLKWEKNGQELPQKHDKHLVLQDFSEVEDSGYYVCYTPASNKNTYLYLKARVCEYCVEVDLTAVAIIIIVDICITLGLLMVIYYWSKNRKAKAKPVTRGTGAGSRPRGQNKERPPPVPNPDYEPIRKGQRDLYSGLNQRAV
T2 sequence (P04235 22-173, stated change not applied, chain 2 of 2): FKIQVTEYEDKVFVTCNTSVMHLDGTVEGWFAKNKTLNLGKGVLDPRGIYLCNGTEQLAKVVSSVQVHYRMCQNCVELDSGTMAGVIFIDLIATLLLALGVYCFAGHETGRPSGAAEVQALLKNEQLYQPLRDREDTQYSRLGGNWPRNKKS

In assay [3] the target is T3, Fc-tagged human CD3E/D heterodimer (Homo sapiens, UniProt P07766;P04234).
T3 construct: CD3 epsilon, human; CD3 delta, human; also called hCD3E/D; source: Expi293, transiently co-expressed, purified (MabSelect Sure LX, Superdex 200)
T3 sequence (P07766 23-207, chain 1 of 2): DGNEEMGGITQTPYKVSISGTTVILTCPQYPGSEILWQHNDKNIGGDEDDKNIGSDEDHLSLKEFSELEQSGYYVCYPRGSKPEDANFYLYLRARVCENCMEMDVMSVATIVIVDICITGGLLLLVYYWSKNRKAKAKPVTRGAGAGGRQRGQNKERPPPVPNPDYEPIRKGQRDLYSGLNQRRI
T3 sequence (P04234 22-171, chain 2 of 2): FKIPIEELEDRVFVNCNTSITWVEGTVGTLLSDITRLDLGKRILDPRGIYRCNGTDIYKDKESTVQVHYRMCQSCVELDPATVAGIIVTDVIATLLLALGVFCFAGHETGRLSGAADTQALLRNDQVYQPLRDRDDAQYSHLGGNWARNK

In assay [4] the target is T4, Fc-tagged cyno CD3E/D heterodimer (Macaca fascicularis, UniProt Q95LI5;Q95LI8).
T4 construct: CD3 epsilon, cynomolgus monkey; CD3 delta, cynomolgus monkey; source: Expi293, transiently co-expressed, purified (MabSelect Sure LX, Superdex 200)
T4 sequence (Q95LI5 22-198, chain 1 of 2): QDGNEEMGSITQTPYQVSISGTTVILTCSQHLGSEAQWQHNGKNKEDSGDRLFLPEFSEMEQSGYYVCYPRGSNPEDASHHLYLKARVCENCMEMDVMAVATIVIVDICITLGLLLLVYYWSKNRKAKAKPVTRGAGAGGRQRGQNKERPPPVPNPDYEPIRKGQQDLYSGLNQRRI
T4 sequence (Q95LI8 22-171, chain 2 of 2): as the sequence (P04234 22-171, chain 2 of 2) above, with I5V, N15K, I20V, S32T, D33N, I34N, T64A, S74N, V83L, H141R counted along it

T1 sequence (P22646 22-189, chain 1 of 2): as the sequence (P22646 22-189, stated change not applied, chain 1 of 2) above
T1 sequence (P04235 22-173, chain 2 of 2): as the sequence (P04235 22-173, stated change not applied, chain 2 of 2) above

B1: hCD3.1 Fab (Fab, V domains shown)
VH: EVQLVESGGGLVQPGGSLRLSCAASGFTFSDYYMTWVRQAPGKGLEWVAFIRNRARGYTSDHNPSVKGRFTISRDNAKNSLYLQMNSLRAEDTAVYYCARDRPSYYVLDYWGQGTTVTVSS
VL: DIVMTQSPDSLAVSLGERATINCKSSQSLFNVRSRKNYLAWYQQKPGQPPKLLISWASTRESGVPDRFSGSGSGTDFTLTISSLQAEDVAVYYCKQSYDLFTFGSGTKLEIK
notes: VH of hCD3.1; CH1 of the Fab; VL of hCD3.1; CL of the Fab; Anti-human CD3 arm of a clinical T-cell engager; cloned in pTT5 with an N-terminal osteonectin signal peptide; source: Expi293, transient, purified (Ni Sepharose excel, Superdex 200)
Take B1: the binding result in assay [1] is reported as “no binding”. Besides, the Kd came to 8.6 ± 0.53 nM in assay [2], 6.3 ± 0.18 nM in assay [3] and 6.5 ± 0.11 nM in assay [4].

B2: hCD3.4 Fab (Fab, V domains shown)
VH: QVQLVQSGAEVKKPGASVKVSCKASGFNIKDYYMHWVRQAPGQRLEWMGWIDLENGNTIYDPKFQGRVTITRDTSASTAYMELSSLRSEDTAVYYCARDGYGRYFYDVWGQGTLVTVSS
VL: DIVMTQSPDSLAVSLGERATINCKSSQSLLNSRTGKNYLAWYQQKPGQPPKLLIYWASTRESGVPDRFSGSGSGTDFTLTISSLQAEDVAVYYCKQSYSRRTFGGGTKVEIK
notes: VH of hCD3.4; CH1 of the Fab; VL of hCD3.4; CL of the Fab; Anti-human CD3 arm of a clinical T-cell engager; cloned in pTT5 with an N-terminal osteonectin signal peptide; source: Expi293, transient, purified (Ni Sepharose excel, Superdex 200)
As to B2, in assay [1], the binding result was “no binding”. The values for the Kd in assay [2], in assay [3] and in assay [4] were 3.1 ± 0.23 nM, 2.7 ± 0.45 nM and 2.7 ± 0.02 nM, respectively.

B3: SP34 Fab (Fab, V domains shown)
VH: EVQLVESGGGLVQPKGSLKLSCAASGFTFNTYAMNWVRQAPGKGLEWVARIRSKYNNYATYYADSVKDRFTISRDDSQSILYLQMNNLKTEDTAMYYCVRHGNFGNSYVSWFAYWGQGTLVTVSA
VL: QAVVTQESALTTSPGETVTLTCRSSTGAVTTSNYANWVQEKPDHLFTGLIGGTNKRAPGVPARFSGSLIGDKAALTITGAQTEDEAIYCALWYSNLWVFGGGTKLTVL
notes: VH of SP34; CH1 of the Fab; VL of SP34; CL of the Fab; Cyno cross-reactive anti-human CD3 clone; cloned in pTT5 with an N-terminal osteonectin signal peptide; source: Expi293, transient, purified (Ni Sepharose excel, Superdex 200)
Consider B3, for which the binding result in assay [1] is on record as “no binding”. For the same molecule, the Kd stood at 7.3 ± 0.18 nM in assay [2], 6.6 ± 0.46 nM in assay [3] and 7.5 ± 0.06 nM in assay [4].

B4: 2C11 Fab (Fab, V domains shown)
VH: EVQLVESGGGLVQPGKSLKLSCEASGFTFSGYGMHWVRQAPGRGLESVAYITSSSINIKYADAVKGRFTVSRDNAKNLLFLQMNILKSEDTAMYYCARFDWDKNYWGQGTMVTVSS
VL: DIQMTQSPSSLPASLGDRVTINCQASQDISNYLNWYQQKPGKAPKLLIYYTNKLADGVPSRFSGSGSGRDSSFTISSLESEDIGSYYCQQYYNYPWTFGPGTKLEIK
notes: VH of 2C11; CH1 of the Fab; VL of 2C11; CL of the Fab; Murine surrogate anti-CD3 clone; cloned in pTT5 with an N-terminal osteonectin signal peptide; also called m2C11; source: Expi293, transient, purified (Ni Sepharose excel, Superdex 200)
For B4, the Kd in assay [1] amounted to 22 ± 1.4 nM; in assay [2], 250 ± 16 nM. The binding result in assay [3] and in assay [4] was “no binding” each time.

B5: hCD3.5 Fab (Fab, V domains shown)
VH: not shown
VL: QAVVTQEPSLTVSPGGTVTLTCGSSTGAVTTSNYANWVQEKPGQAFRGLIGGTNKRAPGTPARFSGSLLGGKAALTLSGAQPEDEAEYYCALWYSNLWVFGGGTKLTVL
notes: VH of hCD3.5; CH1 of the Fab; VL of hCD3.5; CL of the Fab; Anti-human CD3 arm of a clinical T-cell engager; cloned in pTT5 with an N-terminal osteonectin signal peptide; source: Expi293, transient, purified (Ni Sepharose excel, Superdex 200)
As to B5, the binding result in assay [1] was “no binding”. Also, the Kd in assay [2] worked out at 4.4 ± 0.27 nM; in assay [3], 4.1 ± 0.44 nM; in assay [4] it was 5 ± 0.5 nM.

B6: hCD3.2 Fab (Fab, V domains shown)
VH: EVQLVESGGGLVQPGGSLRLSCAASGFTFNTYAMNWVRQAPGKGLEWVARIRSKYNNYATYYAASVKGRFTISRDDSKNSLYLQMNSLKTEDTAVYYCARHGNFGNSYVSWFAYWGQGTLVTVSS
VL: QTVVTQEPSLTVSPGGTVTLTCRSSTGAVTTSNYANWVQQKPGQAPRGLIGGTNKRAPGTPARFSGSLLGGKAALTLSGVQPEDEAEYYCALWYSNLWVFGGGTKLTVL
notes: VH of hCD3.2; CH1 of the Fab; VL of hCD3.2; CL of the Fab; Anti-human CD3 arm of a clinical T-cell engager; cloned in pTT5 with an N-terminal osteonectin signal peptide; source: Expi293, transient, purified (Ni Sepharose excel, Superdex 200)
Regarding B6, in assay [1], the binding result is “no binding”. Moreover, the Kd in assay [2] turned out to be 4.2 ± 0.22 nM; in assay [3], 3.1 ± 0.35 nM; in assay [4] it was 3.8 ± 0.61 nM.
